Here are results for 1 molecule from paper PMC8717942.

Assay [1] has as its target biotinylated K29-linked diUb (chemically synthesized) (UniProt P0CG48). In words: ELISA. A general note: An ELISA detects its analyte on a solid surface through an enzyme-linked reagent.
In assay [2] the target is K29-linked diubiquitin (UniProt P0CG48). In words: Western blot. (In general: In western blotting, separated proteins are transferred to a membrane and probed.)
For assay [3], the target named is His-tagged K29-linked diubiquitin (UniProt P0CG48). In words: SPR. (In general: Surface plasmon resonance follows binding to a sensor surface in real time, without labels.)
The target of assay [4] is K29-linked diubiquitin (UniProt P0CG48). In words: crystal structure.

Bounds are passed on as bounds.

B1: sAB-K29 (Fab, V domains shown)
VH: EVQLVESGGGLVQPGGSLRLSCAASGFNVSYSSIHWVRQAPGKGLEWVASIYSYYGSTYYADSVKGRFTISADTSKNTAYLQMNSLRAEDTAVYYCARYGFAGQPETWYAMDYWGQGTLVTVSS
VL: DIQMTQSPSSLSASVGDRVTITCRASQSVSSAVAWYQQKPGKAPKLLIYSASSLYSGVPSRFSGSRSGTDFTLTISSLQPEDFATYYCQQAYVEPITFGQGTKVEIK
As for B1, in assay [1], the EC50 (commonly the midpoint of the concentration-response curve) is 1.46 nM. Further, in the assay with K29-linked diubiquitin [2], the fold more sensitive than for the other diUbs tested is greater than 320 fold and the lowest amount detected was 0.78 ng. Also, the Kd (usually the constant that tells how readily two partners part at equilibrium) in assay [3] is 3.13 nM. Besides, the stoichiometry N (in general, a count of units in the complex or per binding partner) with K29-linked diubiquitin [4] was determined as 1.
